# In patent publication US11224662B2, “Methods and therapeutics comprising ligand-targeted ELPs” (priority 2012, dated 2022):
# T1: coxsackie adenovirus receptor (CAR) (Mus musculus, UniProt P97792)
# T1 construct: This study was carried out in transformed mouse hepatocytes because of the high expression of CAR; endogenous in cells; host or cells: transformed mouse hepatocyte cell line
# T1 sequence (P97792 20-365): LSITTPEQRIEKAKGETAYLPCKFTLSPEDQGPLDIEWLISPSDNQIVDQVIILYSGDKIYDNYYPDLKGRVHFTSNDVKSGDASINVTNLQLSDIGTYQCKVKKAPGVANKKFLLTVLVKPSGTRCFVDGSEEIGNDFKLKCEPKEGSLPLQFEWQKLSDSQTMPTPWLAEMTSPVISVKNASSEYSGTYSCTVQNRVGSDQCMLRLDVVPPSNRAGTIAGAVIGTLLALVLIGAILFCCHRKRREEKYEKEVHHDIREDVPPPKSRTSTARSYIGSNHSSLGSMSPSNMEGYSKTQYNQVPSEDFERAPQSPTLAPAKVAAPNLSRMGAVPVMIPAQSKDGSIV
# B1: knob-G(VPGSG)48(VPGIG)48Y (SEQ ID. NO: 10) (protein)
# chain: GVPGSGVPGSGVPGSGVPGSGVPGSGVPGSGVPGSGVPGSGVPGSGVPGSGVPGSGVPGSGVPGSGVPGSGVPGSGVPGSGVPGSGVPGSGVPGSGVPGSGVPGSGVPGSGVPGSGVPGSGVPGSGVPGSGVPGSGVPGSGVPGSGVPGSGVPGSGVPGSGVPGSGVPGSGVPGSGVPGSGVPGSGVPGSGVPGSGVPGSGVPGSGVPGSGVPGSGVPGSGVPGSGVPGSGVPGSGVPGSGVPGIGVPGIGVPGIGVPGIGVPGIGVPGIGVPGIGVPGIGVPGIGVPGIGVPGIGVPGIGVPGIGVPGIGVPGIGVPGIGVPGIGVPGIGVPGIGVPGIGVPGIGVPGIGVPGIGVPGIGVPGIGVPGIGVPGIGVPGIGVPGIGVPGIGVPGIGVPGIGVPGIGVPGIGVPGIGVPGIGVPGIGVPGIGVPGIGVPGIGVPGIGVPGIGVPGIGVPGIGVPGIGVPGIGVPGIGVPGIGY
# notes: assembles into nanoparticles
# Assays:
# [1] = system: lacrimal gland acinar cells (LGACs); assay: Suppression of transcytosis by Myosin Vb tail overexpression in LGACs; type: cell-based, rabbit; conditions: 30 μM Cy5-conjugated, 60 minutes at 37° C.
# Method: To obtain the indication of lumen area of LGACs, the cells were also pre-infected with Adenovirus EGFP-actin and helper virus at a 37° C. incubator with 5% CO2 overnight. To avoid the clash of fluorescence colours, the knob-S48148 used in transcytosis inhibition was conjugated with Cy5. The LGACs were grown on 35 mm glass-bottomed dishes for two days. Adenovirus EGFP-actin and helper virus with or without adenovirus mCherry Myosin Vb tail were added into dishes and cultured overnight. After waiting for expression of fluorescence, confocal microscopy was used to make sure adenovirus mCherry-myosin Vb tail and adenovirus EGFP-actin grow in LGACs. On the third day, knob-S48148 conjugated with Cy5 was then mixed with the cold medium at a concentration of 30 μM, warmed to 37° C. and then added into dishes. After 60 minutes incubation in a 37° C. incubator with 5% CO2, LGACs were thoroughly rinsed with fresh warm medium then immediately imaged under a Zeiss LSM 510 Meta confocal microscope system, which is equipped with argon and red and green He—Ne lasers and mounted on a vibration-free table. All images were captured under the confocal microscope and processed using ImageJ (NIH, USA).
# [2] = Temperature-dependent optical density (turbidity) of ELP fusion peptides; type: physicochemical; conditions: 25 μM in PBS; for Transition Temperature T1: first phase transition; for Transition Temperature T1 / Transition Temperature T2: optical density; for Transition Temperature T2: second phase transition
# Method: (§1) To explore the temperature-dependent phase behavior of the ELPs, optical density and hydrodynamic radius were observed over a range of temperatures. Knob-S96, S48148 and knob-S48148 were diluted to 25 μM in PBS on ice and the absorbance at 350 nm was monitored with a DU800 UV-Vis spectrophotometer (Beckman Coulter, Brea, Calif.) at a temperature gradient of 1° C./minute. […] Then 90 μL sample of was transferred into a 384 well microplate and covered with 20 μL mineral oil. The microplate and mineral oil were pre-chilled at 4° C. at least for 1 hour. The microplate was centrifuged at 4° C. to remove air bubbles from samples before and after addition of mineral oil. Then the sample was measured in a DynaPro plate reader (Wyatt Inc., Santa Barbara, Calif.) at temperature intervals of 1° C. The resulting hydrodynamic radii were collected and analyzed by Dynamics (Wyatt Inc., Santa Barbara, Calif.).
# [3] = system: transformed mouse hepatocytes; assay: Live cell uptake of rhodamine-conjugated ELP/knob-ELP in hepatocytes; type: cell-based; conditions: 10 μM rhodamine-labeled, 30 minutes at 37° C., confocal microscopy, LYSOTRACKER green
# Method: To track cellular uptake, the ELPs S48148 and knob-S48148 were conjugated with a detectable label, NHS-Rhodamine (Thermo Fisher Scientific Inc, Rockford, Ill.) via covalent modification of primary amines at the amino end of the peptide. For S48148, the only available amine is at the amino terminus; however, knob-S48148 has an additional 11 lysine residues that may be sites of modification. The conjugation was performed in 100 mM borate buffer for 2 hours at 4° C., and the conjugated ELP was separated by size exclusion chromatography on a PD10 desalting column (GE Healthcare, Piscataway, N.J.).
# To observe uptake into mouse hepatocytes, cells were cultured on 35 mm glass coverslip-bottomed dishes with medium [(DMEM (4.5 g/L) containing 10% fetal bovine serum, g/ml insulin, and 0.02 [μg/ml epidermal growth factor]. Uptake studies were conducted when hepatocytes reached 70% confluence. After washing with warm fresh medium, hepatocytes were cultured in medium containing 10 μM of either S48148 or knob-S48148 conjugated with rhodamine, and 75 nM LYSOTRACKER® green. After 30 minutes incubation at 37° C., the cells were rinsed with warm fresh medium to remove the free knob-ELP/ELP in the medium. Next cells were incubated with 75 nM LYSOTRACKER® green in a 37° C. incubation chamber. […]
# LG of BALB/c mice = assay: In vivo retention in the lacrimal gland after intra-lacrimal gland injection; design: species or system mouse; conditions: 5 μL of 50 μM rhodamine-labelled, 1 h, compared with untargeted S48I48
# Method: Twelve-week-old male BALB/c mice were administered, by intra-lacrimal gland injection, 5 μL of 50 μM rhodamine-labelled S48148 or rhodamine-labelled knob-S48148 (red) combined with 50 μg CF-dextran (10 kD, green). After 1 h, mice were euthanized and the glands were retrieved, embedded into the O.C.T. compound (Tissue-Tek), and frozen on dry ice. The frozen tissue blocks were cut into 10 μm thick sections and imaged using confocal fluorescence microscopy. The white arrows indicate endocytosed S48148 or knob-S48148 nanoparticles. The bar represents 10 μm. […] For this experiment, the mice were euthanatized by intraperitoneal injection with 55 mg ketamine and 14 mg xylazine per kilogram of body weight, followed by cervical dislocation. 5 μL of 50 μM rhodamine labelled knob-S48148 or S48148 was injected into the lacrimal glands of mice. After 60 minutes, the tear was collected from one eye of mouse by adding Carbachol into the related lacrimal gland. For another gland, it was removed after the tear collection was done at the first eye. After removal, LGs were snap frozen and stored on the dry ice. The frozen glands were cut into 10 μm thick sections and mounted on glass slides. Then the sections were examined with a confocal laser scanning microscope (LSM) at excitation wavelengths of 488 and 534 nm.
# [4] = biological target: T1, coxsackie adenovirus receptor (CAR); assay: Competitive binding and uptake with anti-mouse CAR antibody in hepatocytes; type: cell-based; conditions: 20 μg/mL anti-mouse CAR antibody 30 minutes at 37° C., then 10 μM rhodamine-conjugated knob-S48I48
# Method: After confirming that the goat anti-mouse CAR antibody has a high affinity with the mouse hepatocytes, the anti-mouse CAR antibody (0.2 mg/mL) was diluted with warm medium 10-fold and incubated with the hepatocytes for 30 minutes at 37° C. Knob-S48148 conjugated with rhodamine was then added to the medium at a concentration of 10 μM. After 30 minutes incubation with knob-S48148 and 75 nM LYSOTRACKER® green, the hepatocytes were rinsed, then incubated in fresh warm medium with 75 nM LYSOTRACKER® green and imaged as described above.
# [5] = Dynamic light scattering of ELP nanoparticles; type: physicochemical
# Method: as §1
molecule,measurement,setting,value
B1,transcytosis with overexpressed mCherry myosin Vb tail,[1],significantly reduce the transcytosis
same,Transition Temperature T1,[2],19.5 °C
same,Transition Temperature T1,[2]; listed as Knob-S48148,around 19.5 °C
same,Critical aggregation temperature,[2]; optical density at 350 nm by UV-Vis spectrophotometer,19.5 °C
same,Transition Temperature T2,[2],60 °C
same,Transition Temperature T2,[2]; listed as Knob-S48148,around 60 °C
same,cellular uptake / fluorescence localisation,[3],significant cellular uptake
same,"retention in lacrimal gland (accumulation, surface association, internalization)",LG of BALB/c mice,"stronger apical-membrane/luminal accumulation, surface association, and internalization"
same,intracellular knob-S48I48 fluorescence after anti-mouse CAR antibody pre-incubation,[4],reduced the intracellular punctate fluorescence
same,size by dynamic light scattering (BSA; unimers of the ELPs),"[5]; BSA stable from 10 to 37° C., ELPs as unimers below assembly temperature",around 4 nm
same,critical nanoparticle temperature (CNT),[5]; dynamic light scattering,19.5 °C
same,Hydrodynamic radius (nm) at 37° C.,"[5]; dynamic light scattering, 25 μM in PBS, 37° C.",21.7 nm
same,hydrodynamic diameter of nanoparticles,"[5]; dynamic light scattering, self-assembled nanoparticles",around 40 nm
